Laboratory results as given in the supplement of paper PMC9170038.

What was measured:
MS2 coat protein [1] = assay: apparent KD of MS2 coat protein; designed switch direction (-1 OFF switch, 1 ON switch): 1; higher = weaker reporter binding; settings: Eterna round: R98
Experimental: (§1)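 RNA-MaP: designed FMN/MS2 RNA switches (84 nt design region) are transcribed on-chip within common flanks and titrated with SNAP-549-labelled MS2 coat protein (about 1-3000 nM) in 100 mM Tris pH 7.5, 80 mM KCl, 4 mM MgCl2, without or with 200 uM FMN. Median apparent KD per design; activation ratio = KD,OFF / KD,ON.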

MS2 coat protein [2] = assay: apparent KD of MS2 coat protein; designed switch direction (-1 OFF switch, 1 ON switch): -1; higher = weaker reporter binding; settings: Eterna round: R98
Experimental: as §1

MS2 coat protein [3] = assay: apparent KD of MS2 coat protein; higher = weaker reporter binding; settings: Eterna round: R101
Experimental: as §1

Row | Sequence | apparent KD of MS2 coat protein (MS2 coat protein [1]; input ligand: FMN 200 uM) [nM] | apparent KD of MS2 coat protein (MS2 coat protein [1]; input ligand: none) [nM] | other results
1 | CAUAUAUGGUGAGGAUAUGCAGAGGAUCACCCUGUAGAAGGCAUCAGGGUAGAAGGUGCAAGGAUCACCUGUAAGGAUAUAUCC [pwkr2 ssNG1 DX.28] | 979 | 864 | 
2 | CCGUUGCAAAUAAAACAUGAGGAUCACCCAUGUGAGUCUCAUGAGGAUAUGCAGGUCAAAGACUUGCAGAAGGCAUGGCGACGG [Mat - Same State NG 3 - JL Mod - D67] | 118 | 1520 | 
3 | GCGCGCGCGCGCGCGCGCGCGCACAUGAGGAUCACCCAUGUAUAGGAUAUCGAUUGUUGUUGAUUCGAGAAGGGUAGCGCGCGC [Exclusion NG3] |  |  | apparent KD of MS2 coat protein (MS2 coat protein [2]; input ligand: FMN 200 uM): 44.1 nM; apparent KD of MS2 coat protein (MS2 coat protein [2]; input ligand: none): 39.4 nM
4 | GAAUAAUAGAUCCAAUUUAUCUACAUGAGGAUCACCCAUGUGCAGGAUAUGCUAAAAUUUAAUAAGCAGAAGGGCAAGAACGGC [JR_ExcNG3_Sub016] |  |  | apparent KD of MS2 coat protein (MS2 coat protein [2]; input ligand: FMN 200 uM): 374 nM; apparent KD of MS2 coat protein (MS2 coat protein [2]; input ligand: none): 104 nM
5 | GCAGAAGGUGCGGAGGAUCACCCUGUAAGGAUAUGCAUUAGCAAGGAUAUACAGAGGAUCACCCUGUAGAAGGUGCACUUCAAA [pwkr2 ssNG3 DX.6] | 779 | 3160 | 
6 | GACGGAUUCUUAGGAUAUGCUCAGGAUAACUGAGCAGAAGGAAGAAUAACCUGAGGAUCACCCAGGUAAUACUGAACGUCAAUA [Same State NG1 - A3C, U17G Submission 9B] | 20.7 | 64.1 | 
7 | CAUGUAUGGUGAGGAUAUGCAAAGGAUCACCUUGUAGAAGGCAUCAGGUAGAAGGUGCAGAGGAUCACCCUGUAAGGAUAUAUC [pwkr2 ssNG1 DX.23] | 72 | 249 | 
8 | AUGAAGAGGCAAGGAUAUCGAGUGCUGGGCCUAUACAUGAGGAUCACCCAUGUCCUGGCAGGACGUGAGAAGGUGUAUCGAAUA [Ussotemaa] | 455 | 244 | 
9 | GACGAAUUCUUAGGAUAUCGAGUGGAUAACACUCGAGAAGGAAGAUAUACCUGAGGAUCACCCAGGUUAAACUGGACGUCAAUA [Same State NG1 - A3C, U17G Submission 8C] | 53.6 | 205 | 
10 | CUGUGGGCCAUAGGAUAUGCGCAGAAUUAGCAAGCAGAAGGGUGGAUCGGACAAUAAUAACUACAUGAGGAUCACCCAUGUGCU [Lelegeza] | 55.5 | 139 | 
11 | AAAUAAAAUAUAGGAUAUGGAAACAUGAGGAUCACCCAUGUAAGAUAAGAUAAAUAAUGAUAUAGCCAGAAGGAUAAAAUAUAA [LRO005_SS NG 2] | 32.7 | 28.3 | 
12 | GAGCAGGUAAAUAAACUCAAUUACAUGAGGAUCACCCAUGUAUAGGAUAUCGUCAGGAAUACUGACGAGAAGGAUACAUCCUGC [Exclusion NG 3/14-A2] |  |  | apparent KD of MS2 coat protein (MS2 coat protein [2]; input ligand: FMN 200 uM): 59.2 nM; apparent KD of MS2 coat protein (MS2 coat protein [2]; input ligand: none): 19.7 nM
13 | GGAGACCUCACAGGAUAUGCUGGACUUUGUCCAGCAGAAGGGUGAACAUGAGGAUCACCCAUGUAGGUCUCCAAAAUAUUUAAU [Denovo 50] | 989 | 100 | 
14 | CGAACCACUUAGGUACCACACAUGAGGAUCACCCAUGUAUCACAGGAUAUGCAUGAUAUAUUCAGGCAGAAGGGUGAUCUUACC [Esananti] | 265 | 24.7 | 
15 | UAACAGCGAAGAUAAUAAUGAAUACAUGAGGAUCACCCAUGUAAGGAUAUCGUCAGGAAUACUGACGAGAAGGUACAUACGCUG [Exclusion NG 3/17-B2] |  |  | apparent KD of MS2 coat protein (MS2 coat protein [2]; input ligand: FMN 200 uM): 23.2 nM; apparent KD of MS2 coat protein (MS2 coat protein [2]; input ligand: none): 16.7 nM
16 | AGUUGCAAACAGAACAUGAGGAUCACCCAUGUGCUCUCGUGUAAGGAUAUACAUUCGUAUGGAAAGUAGAAGGUACUAAUUAUG [JR_SSNG3_Sub93] | 66.3 | 65.1 | 
17 | CCAGAUAUAUGAGGAUAUCGAGUGGAAUACACUCGAGAAGGUAUGUGAAAACAUGAGGAUCACCCAUGUGAUUAAUAAUCUGGA [SameState NG1 #1] | 22.4 | 16.8 | 
18 | GUCGGAAACGACAAGUCAGCUCGUGAGGAUAUACAUAAAUUAAAGAUCACAUGAGGAUCACCCAUGUAGAAGGCACGAGCUGAU [#StaticStemDeletion - ENG2/2-A2] (puzzle (switch architecture): Small Loop Exclusion NG 3) |  |  | apparent KD of MS2 coat protein (MS2 coat protein [3]; input ligand: FMN 200 uM): 455 nM; apparent KD of MS2 coat protein (MS2 coat protein [3]; input ligand: none): 195 nM
19 | GGAAUAAAUGCAGGAUAUACGUGGAAAGCCCUCAACAUGAGGAUCACCCAUGUAGAAGGGCAUCUCCCGACCGAAGCGGAUCUC [Laisraus] (puzzle (switch architecture): Small Loop Exclusion NG 1) |  |  | apparent KD of MS2 coat protein (MS2 coat protein [3]; input ligand: FMN 200 uM): 4.83 nM
20 | AUCUAUCGGUCAGGAUAUUCACAUGAGGAUCACCCAUGUGAGCCUCGGCCAAAGUGAACGCAUGUGAAGAAGGGACGGCAAAAC [Atceen] |  |  | apparent KD of MS2 coat protein (MS2 coat protein [2]; input ligand: FMN 200 uM): 33.4 nM; apparent KD of MS2 coat protein (MS2 coat protein [2]; input ligand: none): 27.8 nM
21 | AAUAAUCAGGUAGGAUAUGCUCAGGAAUACUGAGCAGAAGGACUAGAAACCUGAGGAUCACCCAGGUAACUGGAAUAAUAAUAA [Same State NG1 - A3C, U17G Submission 6A] | 53.6 | 78.3 | 
22 | UCACUCACGUUAGGAUAUGGAUCGGAAAACGAUCCAGAAGGAACCUGCAAACAAGAGGAUCACCCUUGUUCCAAUAACGAGUGA [SameSame 6 - Jieux - Same State NG 1] | 40.9 | 51.2 | 
23 | ACACAUGAGGAUCACCCAUGUAGCUGGCGUCUGCGCCAGCCACAGGAUAUACGGUAACACAAACCGUAGAAGGGUGAUAAACAC [Inerre] (puzzle (switch architecture): Same State NG 3) |  |  | apparent KD of MS2 coat protein (MS2 coat protein [3]; input ligand: FMN 200 uM): 54.5 nM; apparent KD of MS2 coat protein (MS2 coat protein [3]; input ligand: none): 113 nM
24 | CGCUAUGACAUGAGGAUCACCCAUGUAUACAUGGGAAUGACGUAGGAUAUGCAGAAGAUUAAAGUGCAGAAGGACGGCUUAGCG [JR #DistanceClose #Static #NP SSNG3 Sub064] (puzzle (switch architecture): Same State NG 3) |  |  | apparent KD of MS2 coat protein (MS2 coat protein [3]; input ligand: FMN 200 uM): 1020 nM; apparent KD of MS2 coat protein (MS2 coat protein [3]; input ligand: none): 830 nM
25 | AUAUAAAAUAUAGGAUAUGGAAACAUGAGGAUCACCCAUGUAUGAUAAGAUAAAUAAUGAUAUAGCCAGAAGGAUACAAUAUAA [LRO008_SS NG 2] | 47.5 | 38.2 | 
